This note sets out measurements from patent US20060099150A1 (published 2006).

The assay deals with T1, pIgR Domain 6 GST (D6-GST) fusion protein, species not stated (Schistosoma japonica, UniProt P08515 1-218 = GST).
T1 construct: also called D6-GST constructs
Put plainly: SPR BIAcore, 1:1 Langmuir global fit 62.5-1000 nM; ligand not named.

T1 sequence (P08515 whole entry, the tested form may be a part): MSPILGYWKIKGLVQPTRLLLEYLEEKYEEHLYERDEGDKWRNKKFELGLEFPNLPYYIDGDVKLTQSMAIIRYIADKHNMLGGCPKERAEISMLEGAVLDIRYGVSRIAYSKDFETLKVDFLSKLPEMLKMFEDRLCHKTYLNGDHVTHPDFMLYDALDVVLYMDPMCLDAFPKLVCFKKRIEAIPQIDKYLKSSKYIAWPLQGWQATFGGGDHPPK

B1: single chain antibody sFv5A (scFv)
scFv: QVQLQQSGGGVVQPGRSLRLSCAASGFTFSSYAMHWVRQAPGKGLEWVSAISGSGGSTYYADSVKGRFTISRDNAKNSLYLQMNSLRAEDTAVYYCARDTRGYFDLWGRGTLVTVSSGGGGSGGGGSGGGGSSELTQDPAMSVALGQTVRITCQGDSLRKYHASWYQQRPRQAPRLVVYGKNERPSGIPERFSGSTSGDTASLTISGLQAEDEADYYCHSRDSNADLVVFGGGTKVTVLGAAAEQKLISEEDLNGAAHHHHHH
notes: also called sFv (positive control)
For B1, the Ka came out at 6.31e+06 M⁻¹; the Kd (as a rule, the equilibrium constant for the complex coming apart) was 158 nM; the koff (in general, a measure of how fast the partners let go of each other) came out at 0.00464 s⁻¹; the kon (commonly a measure of how fast the partners come together) amounted to 29300 M⁻¹ s⁻¹.

B2: sFv5AF-Cys (scFv)
scFv: DYKAKQVQLVQSGGGVVQPGRSLRLSCAASGFTFSSYAMHWVRQAPGKGLEWVSAISGSGGSTYYADSVKGRFTISRDNAKNSLYLQMNSLRAEDTAVYYCARDTRGYFDLWGRGTLVTVSSGGGGSGGGGSGGGGSSELTQDPAMSVALGQTVRITCQGDSLRKYHASWYQQRPRQAPRLVVYGKNERPSGIPERFSGSTSGDTASLTISGLQAEDEADYYCHSRDSNADLVVFGGGTKVTVLGGGGGSCAAAEQKLISEEDLNGAAHHHHHH
notes: also called s5AF-Cys; sFv5AF-Cys starting material
For the molecule B2, the Ka worked out at 9.84e+06 M⁻¹, binding was put at a Kd of 102 nM, the off-rate constant (koff) is 0.00464 s⁻¹ and the on-rate constant (kon) was found to be 37600 M⁻¹ s⁻¹.
